According to patent publication US20060073087A1, “Method and apparatus for the formation of particles” (priority 1994, published 2006):

Experiment: colorimetric beta-lactamase activity assay with Nitrocefin (method of O'Callaghan)
Format: biochemical
Conditions: particles formed from aqueous solution with ethanol and supercritical CO2; tested colorimetrically with Nitrocefin
Source text: This illustrates the successful use of the method and apparatus of the invention in preparing particulate protein products in a controlled manner, even where the proteins are insoluble in, or incompatible with, organic solvents.

B1: R-TEM beta-lactamase (protein, UniProt P62593 24-286, looked up)
Beta-lactamase TEM: HPETLVKVKDAEDQLGARVGYIELDLNSGKILESFRPEERFPMMSTFKVLLCGAVLSRVDAGQEQLGRRIHYSQNDLVEYSPVTEKHLTDGMTVRELCSAAITMSDNTAANLLLTTIGGPKELTAFLHNMGDHVTRLDRWEPELNEAIPNDERDTTMPAAMATTLRKLLTGELLTLASRQQLIDWMEADKVAGPLLRSALPAGWFIADKSGAGERGSRGIIAALGPDGKPSRIVVIYTTGSQATMDERNRQIAEIGASLIKHW
notes: water-soluble protein R-TEM beta-lactamase, batch number 1TEM1L88, formed into particles by the method of the invention
enzymatic activity of the particulate product: retained substantial enzymatic activity
